In the assay the target is nucleosome N(13,91) (chicken). Kind of assay: single-particle FRET.

Substance “poly(ADP-ribose) polymerase 1 (from UniProt P09874 1-1014) (enzyme)” had a content of PARP1-nucleosome complexes at 50 nM PARP1 of 45%.

The values above are taken from PMC8867921.
